Test results taken from US20260275312, “CRISPR NUCLEASE POLYPEPTIDES AND GENE EDITING SYSTEMS COMPRISING SUCH” (ARBOR BIOTECHNOLOGIES, INC., published 2026).

Experiments:
[1] = target: T1, Nuclease H D912R (synthetic construct, D912R); test: cell_activity; HEK293T; PAM AAC; conditions: tags: N-term SV40 NLS, XTEN linker + C-term nucleoplasmin NLS
T1 chain: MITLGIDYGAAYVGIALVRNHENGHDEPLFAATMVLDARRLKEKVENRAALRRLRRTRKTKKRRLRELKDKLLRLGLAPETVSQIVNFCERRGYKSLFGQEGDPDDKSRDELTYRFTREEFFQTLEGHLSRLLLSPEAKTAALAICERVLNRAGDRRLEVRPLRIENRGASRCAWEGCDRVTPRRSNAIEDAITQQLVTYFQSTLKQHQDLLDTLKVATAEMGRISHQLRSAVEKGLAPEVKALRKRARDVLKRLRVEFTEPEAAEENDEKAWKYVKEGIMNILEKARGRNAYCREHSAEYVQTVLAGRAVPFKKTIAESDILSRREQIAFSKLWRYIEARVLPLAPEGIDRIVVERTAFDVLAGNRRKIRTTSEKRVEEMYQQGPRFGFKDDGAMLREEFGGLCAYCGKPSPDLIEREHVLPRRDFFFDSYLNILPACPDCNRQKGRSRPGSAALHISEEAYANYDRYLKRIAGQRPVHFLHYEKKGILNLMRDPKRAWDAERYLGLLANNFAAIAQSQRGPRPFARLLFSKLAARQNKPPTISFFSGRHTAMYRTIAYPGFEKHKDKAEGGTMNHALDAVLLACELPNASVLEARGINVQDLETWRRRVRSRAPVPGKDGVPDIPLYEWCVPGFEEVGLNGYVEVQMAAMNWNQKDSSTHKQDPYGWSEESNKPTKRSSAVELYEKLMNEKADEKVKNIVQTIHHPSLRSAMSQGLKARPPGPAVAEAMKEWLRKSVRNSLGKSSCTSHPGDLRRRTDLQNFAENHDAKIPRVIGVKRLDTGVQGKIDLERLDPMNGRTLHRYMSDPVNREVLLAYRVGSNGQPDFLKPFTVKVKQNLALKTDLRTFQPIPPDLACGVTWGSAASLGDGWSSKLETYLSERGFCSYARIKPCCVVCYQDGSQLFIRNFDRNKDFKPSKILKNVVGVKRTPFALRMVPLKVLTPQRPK
Description: HEK293T cells were transfected with plasmids expressing the Nuclease H polypeptides and the gRNAs provided herein following the methods provided in Example 1 above. Gene editing efficiencies were determined by NGS following the methods also provided in Example 1. The NGS results were analyzed also following the methods provided in Example 1 above.
Indel ratios, referring to the percentage of NGS reads comprising indels, were calculated for the reference and for each variant. The indel ratios used for fold change calculations were the average of two technical replicates. To then calculate fold change in indel ratios, the indel ratio for each variant was divided by the indel ratio for the reference. […] Numbering is relative to the reference nuclease of SEQ ID NO: 64 (i.e., without an NLS).

[2] = target: T2, Nuclease W S925R (synthetic construct, S925R); test: cell_activity; HEK293T; PAM AAA; conditions: tags: N-term SV40 NLS, XTEN linker + C-term nucleoplasmin NLS
T2 chain: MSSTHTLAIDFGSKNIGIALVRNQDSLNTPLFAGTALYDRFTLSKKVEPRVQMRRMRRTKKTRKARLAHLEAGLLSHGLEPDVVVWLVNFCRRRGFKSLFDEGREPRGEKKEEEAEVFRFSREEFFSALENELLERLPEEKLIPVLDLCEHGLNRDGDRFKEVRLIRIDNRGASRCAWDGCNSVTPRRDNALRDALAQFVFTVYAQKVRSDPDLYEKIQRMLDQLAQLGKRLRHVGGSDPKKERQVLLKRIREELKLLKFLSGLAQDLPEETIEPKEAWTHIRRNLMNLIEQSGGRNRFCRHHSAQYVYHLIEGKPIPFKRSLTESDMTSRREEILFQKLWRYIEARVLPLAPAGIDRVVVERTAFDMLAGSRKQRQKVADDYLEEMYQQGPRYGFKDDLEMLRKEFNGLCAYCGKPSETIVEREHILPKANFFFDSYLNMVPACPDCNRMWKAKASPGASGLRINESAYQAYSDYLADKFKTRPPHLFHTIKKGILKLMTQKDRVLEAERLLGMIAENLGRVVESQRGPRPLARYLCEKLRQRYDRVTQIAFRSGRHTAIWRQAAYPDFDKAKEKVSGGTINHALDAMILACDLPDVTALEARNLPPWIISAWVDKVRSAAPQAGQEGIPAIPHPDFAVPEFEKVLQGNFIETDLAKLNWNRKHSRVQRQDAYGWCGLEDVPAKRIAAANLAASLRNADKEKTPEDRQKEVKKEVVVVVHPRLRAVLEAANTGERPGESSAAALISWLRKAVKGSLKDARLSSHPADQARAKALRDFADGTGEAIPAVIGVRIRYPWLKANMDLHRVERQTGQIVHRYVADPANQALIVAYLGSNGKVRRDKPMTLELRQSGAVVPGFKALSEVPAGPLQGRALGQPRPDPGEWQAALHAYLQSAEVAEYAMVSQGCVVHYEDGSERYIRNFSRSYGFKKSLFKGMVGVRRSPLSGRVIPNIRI
Description: Approximately 16 hours prior to transfection, 25,000 HEK293T cells in DMEM/10% FBS+Pen/Strep (D10 media) were plated into each well of a 96-well plate. On the day of transfection, the cells were 50-90% confluent. For each well to be transfected, a mixture of Lipofectamine 2000™ (ThermoFisher Scientific) and Opti-MEM™ (ThermoFisher Scientific) was prepared and incubated at room temperature for 5 minutes (Solution 1). After incubation, the Lipofectamine 2000™:Opti-MEM™ mixture was added to a separate mixture containing the CRISPR nuclease plasmid (NLS-tagged), RNA guide plasmid, and Opti-MEM™ (Solution 2). In the case of negative controls, the CRISPR nuclease plasmid was excluded. Solutions 1 and 2 were mixed by pipetting up and down, then incubated at room temperature for 25 minutes. Following incubation, the Solution 1 and 2 mixture was added dropwise to each well of a 96-well plate containing the cells. Approximately 72 hours post transfection, cells were trypsinized by adding TrypLE™ (Thermo Fisher Scientific) to the center of each well and incubating at 37° C. for approximately 5 minutes. D10 media was then added to each well and mixed to resuspend cells. […]
Cells were transfected, and samples were prepared for NGS as described in Example 1. Indel ratios, referring to the percentage of NGS reads comprising indels, were calculated for the reference and for each variant. […]

B1: H AAVS1-T5 RNA guide ; AAVS1-T5 target (H) (ssRNA ; dsDNA)
RNA: GGCUAUAAUCCAUGCUGACCGUUUCAAUCAACCUGAUCUCUCUGCUUGCGCUGCAGGCUUCAUAAGAUCAGUAGGUUGAAAAGAGCAUCCGUCCGACAUGCACUCCGGGAUGGGGCAGUCCCGGCUCUUGCGGUUCCCGAUGCAGUUAUGUGUCCGCGGAACACGGUGUCGGACACGUCGCAAGACAGGAUGUGAGCCCAUUAUCCACAUUAGGAUCAAUGUACGCAUGAGCAGUCCGCAAUGCCGGGGACGCU
DNA 1: GGCTATAATCCATGCTGACC
DNA 2: GGTCAGCATGGATTATAGCC
[1]
  fold change in indel ratio vs reference: 4.21 fold indel vs reference

B2: W EMX1-T5 RNA guide ; EMX1-T5 target (W) (ssRNA ; dsDNA)
RNA: UAAACUACAGUGGUGCCUGGGUUUCAGCUACCCUGAGUUUCUCAACUCCGUUGAGACUUCCUCAGGUUCAAGCUGAAAAGAGCAUCUGUCCGGAAGGACCACUCCGGGUUAGGGCAGACCCGGCUCUUGGGCUUCCUUGGUCUUUGACUCUGGAGGAAACCUUCCGGCGUGUCGCAAGACAAGAUGUGAGCCUG
DNA 1: TAAACTACAGTGGTGCCTGG
DNA 2: CCAGGCACCACTGTAGTTTA
[2]
  fold change in indel ratio vs reference: 3.44 fold indel vs reference
